# According to patent US20260167959A1, “APTAZYME-BASED REGULATABLE GENE EXPRESSION SYSTEMS” (REJUVENATE BIO INC, priority 2022, published 2026):
# B1: RA112 (nucleic acid)
# DNA: GCGCGTCCTGGATTCGCGGAAACGCGTACATCCAGGGAATACCAGCATCGTCTTGATGCCCTTGGAAGTCCCTGACGAGTCCCAAATAGGACAAAACGCGC
# modifications: expressed or natural sequence
# B2: RA119 (nucleic acid)
# DNA: GCGCGTCCTGGATTCGCGGAAACGCGTACATCCAGAGAATACCAGCATCGTCTTGATGCCCTTGGAAGTCTCTGACGAGTCCCAAATAGGACGAAACGCGC
# modifications: expressed or natural sequence
# B3: RA127 (nucleic acid)
# DNA: GCGCGTCCTGGATTCGCGGAAACGCGTACATCCAGCTGACGAGTCCCAAATAGGACGAAACGCGCCGGAATACCAGCATCGTCTTGATGCCCTTGGAAGTCCGGC
# modifications: expressed or natural sequence
# B4: RA116 (nucleic acid)
# DNA: GCGCGTCCTGGATTCGCGGAAACGCGTACATCCAGCTGACGAGTCCCAAATAGGGAGAATACCAGCATCGTCTTGATGCCCTTGGAAGTCTCACGAAACGCGC
# modifications: expressed or natural sequence
# B5: RA130 (nucleic acid)
# DNA: GCGCGTCCTGGATTCGCGGAAACGCGTACATCCAGCTGAGAATACCAGCATCGTCTTGATGCCCTTGGAAGTCTCGACGAGTCCCAAATAGGACGAAACGCGC
# modifications: expressed or natural sequence
# B6: RA122 (nucleic acid)
# DNA: GCGCGTCCTGGATTCGCGGAAACGCGTACATCCAGCTGACGAGTCCCAAATAGGACGAGAATACCAGCATCGTCTTGATGCCCTTGGAAGTCTCGAAACGCGC
# modifications: expressed or natural sequence
# B7: RA109 (nucleic acid)
# DNA: GCGCCGAGAATACCAGCATCGTCTTGATGCCCTTGGAAGTCTCGGTCCTGGATTCGCGGAAACGCGTACATCCAGCTGACGAGTCCCAAATAGGACGAAACGCGC
# modifications: expressed or natural sequence
# B8: RA011 (nucleic acid)
# DNA: GCGCGTCCTGGATTCGCGGAAACGCGTACATCCAGCTGACGAGTCCCGGAATACCAGCATCGTCTTGATGCCCTTGGAAGTCCGCAAATAGGACGAAACGCGC
# modifications: expressed or natural sequence
# B9: RA114 (nucleic acid)
# DNA: GCGCGTCCTGGATTCGCGGAAACGCGTACATCCAGCTGACGAGTCCCAAATAGGACGAGGAATACCAGCATCGTCTTGATGCCCTTGGAAGTCCAACGCGC
# modifications: expressed or natural sequence
# B10: RA010 (nucleic acid)
# DNA: GCGCGTCCTGGACGAGAATACCAGCATCGTCTTGATGCCCTTGGAAGTCTCGTTCGCGGAAACGCGTACATCCAGCTGACGAGTCCCAAATAGGACGAAACGCGC
# modifications: expressed or natural sequence
# B11: RA012 (nucleic acid)
# DNA: GCGCGTCCTGGATTCGCGGAAACAGAATACCAGCATCGTCTTGATGCCCTTGGAAGTCTGCGTACATCCAGCTGACGAGTCCCAAATAGGACGAAACGCGC
# modifications: expressed or natural sequence
# B12: RA124 (nucleic acid)
# DNA: GCGCGTCCTGGATTCGCGGAAACGCGTACATCCAGCTGACGCGGAATACCAGCATCGTCTTGATGCCCTTGGAAGTCCGAGTCCCAAATAGGACGAAACGCGC
# modifications: expressed or natural sequence
# B13: RA110 (nucleic acid)
# DNA: GCGCGTCCTGGGGAATACCAGCATCGTCTTGATGCCCTTGGAAGTCCATTCGCGGAAACGCGTACATCCAGCTGACGAGTCCCAAATAGGACGAAACGCGC
# modifications: expressed or natural sequence
# B14: RA120 (nucleic acid)
# DNA: GCGCGTCCCCGGAATACCAGCATCGTCTTGATGCCCTTGGAAGTCCGGTGGATTCGCGGAAACGCGTACATCCAGCTGACGAGTCCCAAATAGGACGAAACGCGC
# modifications: expressed or natural sequence
# B15: RA113 (nucleic acid)
# DNA: GCGCGTCCTGGATTCGCGGAAACGCGTACATCCAGCTGACGAGTCCCAAATAGGACGAAACGCGC
# modifications: expressed or natural sequence
# B16: RA111 (nucleic acid)
# DNA: GCGCGTCCTAGTGATACCAGCATCGTCTTGATGCCCTTGGCAGCACTGGATTCGCGGAAACGCGTACATCCAGCTGACGAGTCCCAAATAGGACGAAACGCGC
# modifications: expressed or natural sequence
# B17: RA117 (nucleic acid)
# DNA: GCGCGTCCTGGATCGGAATACCAGCATCGTCTTGATGCCCTTGGAAGTCCGTCGCGGAAACGCGTACATCCAGCTGACGAGTCCCAAATAGGACGAAACGCGC
# modifications: expressed or natural sequence
# B18: RA125 (nucleic acid)
# DNA: GCGCGTCCTGGATTCGCGGAAACGCGTACATCCAGCTGACGAGTCCCGGAATACCAGCATCGTCTTGATGCCCTTGGAAGTCCGGCCAAATAGGACGAAACGCGC
# modifications: expressed or natural sequence
# B19: RA118 (nucleic acid)
# DNA: GCGCGTCCTGGATTCGCGGAAACGCGTACATCCAGCTGACGAGTCCCAAATAGGACGAGAGAATACCAGCATCGTCTTGATGCCCTTGGAAGTCTCAACGCGC
# modifications: expressed or natural sequence
# B20: RA105 (nucleic acid)
# DNA: GCGCGTCCTGGAGAATACCAGCATCGTCTTGATGCCCTTGGAAGTCTCGATTCGCGGAAACGCGTACATCCAGCTGACGAGTCCCAAATAGGACGAAACGCGC
# modifications: expressed or natural sequence
# B21: RA121 (nucleic acid)
# DNA: GCGCGTCCTGGATTCGAGAATACCAGCATCGTCTTGATGCCCTTGGAAGTCTCGCGGAAACGCGTACATCCAGCTGACGAGTCCCAAATAGGACGAAACGCGC
# modifications: expressed or natural sequence
# B22: RA107 (nucleic acid)
# DNA: GCGCGTCCTGGATTCGCGGAAACGCGTACATCCCGGAATACCAGCATCGTCTTGATGCCCTTGGAAGTCCGAGCTGACGAGTCCCAAATAGGACGAAACGCGC
# modifications: expressed or natural sequence
# B23: RA128 (nucleic acid)
# DNA: GCGCGTCCTGGATTCGCGGAAACGCGTAAGTGATACCAGCATCGTCTTGATGCCCTTGGCAGCACTCATCCAGCTGACGAGTCCCAAATAGGACGAAACGCGC
# modifications: expressed or natural sequence
# B24: RA129 (nucleic acid)
# DNA: GCGCGTCCTGGATTCCACTTCGGGTACATCCAGCTGACGAGTCCCAAATAGGACGAAACGCGC
# modifications: expressed or natural sequence
# B25: RA126 (nucleic acid)
# DNA: GCGCGTCCTGGATTCGCGGAAACGCGTACAAGAATACCAGCATCGTCTTGATGCCCTTGGAAGTCTTCCAGCTGACGAGTCCCAAATAGGACGAAACGCGC
# modifications: expressed or natural sequence
# B26: RA108 (nucleic acid)
# DNA: GCGCGTCCTGGATTCGCGGCCGGAATACCAGCATCGTCTTGATGCCCTTGGAAGTCCGGAAACGCGTACATCCAGCTGACGAGTCCCAAATAGGACGAAACGCGC
# modifications: expressed or natural sequence
# B27: RA115 (nucleic acid)
# DNA: GCGCGTCCTGGATTCGCGGAAACGCGTACATCCAGCTGACGAGTCCCAAATAGGACGAGAATACCAGCATCGTCTTGATGCCCTTGGAAGTCTAAACGCGC
# modifications: expressed or natural sequence
# B28: RA123 (nucleic acid)
# DNA: GCGCGTCCTGGATTCGCGGAAACGCGTCGGAATACCAGCATCGTCTTGATGCCCTTGGAAGTCCGACATCCAGCTGACGAGTCCCAAATAGGACGAAACGCGC
# modifications: expressed or natural sequence
# B29: RA106 (nucleic acid)
# DNA: GCGCGTCCTGGATTCGCGGAAACGCGTACATCCAGCTGACCGGAATACCAGCATCGTCTTGATGCCCTTGGAAGTCCGGCGAGTCCCAAATAGGACGAAACGCGC
# modifications: expressed or natural sequence
# Tested on: Renilla luciferase RNA
# Experiment: Barcoded aptazyme variant library screen: un-cleaved Renilla luciferase RNA by barcode read counts, HEK293-T cells
# Type: cell-based
# Conditions: un-cleaved Renilla luciferase RNA, HEK293-T cells cultured with 1 mM theophylline (ON) over without theophylline (OFF); barcode read counts, triplicate
# How it was run: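 Aptazyme variants (seven theophylline aptamers inserted after each T3H48 ribozyme nucleotide, 9-nt barcoded) cloned into the 3′ UTR of Renilla luciferase in psiCHECK-2; cells cultured ± theophylline, in triplicate. RNA and DNA barcodes amplified and sequenced; normalized read counts gave un-cleaved RNA fraction and ON/OFF fold-change.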
row,Molecule,Fold change in RNA expression between the ON state and the OFF state [fold]
1,B1,1.5
2,B2,1.5
3,B3,1.4
4,B4,1.5
5,B5,1.4
6,B6,1.5
7,B7,1.6
8,B8,3.6
9,B9,1.5
10,B10,3.6
11,B11,3.4
12,B12,1.5
13,B13,1.6
14,B14,1.5
15,B15,1.5
16,B16,1.6
17,B17,1.5
18,B18,1.5
19,B19,1.5
20,B20,1.6
21,B21,1.5
22,B22,1.6
23,B23,1.4
24,B24,1.4
25,B25,1.5
26,B26,1.6
27,B27,1.5
28,B28,1.5
29,B29,1.6
